B1: library; numbered along this chain (parent)
chain: MRKPRAAVGSGHRKQAASQEGRQKHAKNNSQAKPSACDGLARQPEEVVLQASVSSYHLFRDVAEVTAFRGSLLSWYDQEKRDLPWRRRAEDEMDLDRRAYAVWVSEVMLQQTQVATVINYYTGWMQKWPTLQDLASASLEEVNQLWAGLGYYSRGRRLQEGARKVVEELGGHMPRTAETLQQLLPGVGRYTAGAIASIAFGQATGVVDGNVARVLCRVRAIGADPSSTLVSQQLWGLAQQLVDPARPGDFNQAAMELGATVCTPQRPLCSQCPVESLCRARQRVEQEQLLASGSLSGSPDVEECAPNTGQCHLCLPPSEPWDQTLGVVNFPRKASRKPPREESSATCVLEQPGALGAQILLVQRPNSGLLAGLWEFPSVTWEPSEQLQRKALLQELQRWAGPLPATHLRHLGEVVHTFSHIKLTYQVYGLALEGQTPVTTVPPGARWLTQEEFHTAAVSTAMKKVFRVYQGQQPGTCMGSKRSQVSSPCSRKKPRMGQQVLDNFFRSHISTDAHSLNSAAQ

Variants of: B1
Assay: 8OG:A repair function score (normalized; synonymous = 0, nonsense = -1) (normalized log-likelihood score); higher = more repair activity (WT-like)
Conditions: with 8OG:A DNA repair reporter (GFP) in HEK-293 MUTYH KO cells
In short: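 Lentiviral MUTYH cDNA NNN codon-scan libraries in HEK-293 MUTYH knockout cells (10 pg/ml doxycycline) were co-transfected with an 8OG:A GFP repair reporter plus mCherry. At 72 h, viable mCherry+ cells were sorted into GFP+ (repair) and GFP− bins, three replicates per tile, then tile amplicons were sequenced. Per-tile Rosace fitness scores became a normalized repair function score anchored on synonymous and nonsense distributions. Synonymous medians were set to 0 and nonsense to -1; variants under 300 counts per million at the start were removed.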

Row | Variant | 8OG:A repair function score
1 | T455G | -0.211
2 | V327Y | -0.526
3 | C278Y | -0.972
4 | T455C | 0.318
5 | L432A | -0.541
6 | G70S | -0.0056
7 | S419T | -0.177
8 | W124V | -0.516
9 | F59H | -0.439
10 | P299A | -0.0132
11 | L49Y | -0.0309
12 | Q288C | -0.0156
13 | Q397Y | -0.0393
14 | R163P | -0.887
15 | W447H | -0.881
16 | I359G | -0.91
17 | Q388F | -0.281
18 | C272H | -1.32
19 | A400N | -0.913
20 | G171C | -0.239
21 | Q126Y | -0.055
22 | G193Q | -0.238
23 | Q132K | -0.364
24 | S515W | -0.0167

Row | Variant | 8OG:A repair function score
25 | G201F | -0.266
26 | Q288A | 0.00699
27 | P331S | -0.197
28 | T66C | 0.00591
29 | G434T | -0.0414
30 | A457N | -0.58
31 | S318K | -0.0665
32 | R97F | -0.0465
33 | N366M | -0.0331
34 | M93K | 0.00623
35 | E160P | -0.814
36 | G258T | -1.21
37 | V415G | -0.172
38 | L139N | 0.213
39 | V362M | -0.403
40 | R69H | -1.89
41 | L373T | -0.0654
42 | L109D | -1.16
43 | Q388S | -0.201
44 | L83S | -0.387
45 | G205R | -0.953
46 | V261Q | -0.57
47 | A223H | -0.196
48 | V500S | 0.00727

Row | Variant | 8OG:A repair function score
49 | L183D | -0.21
50 | R2G | 0.122
51 | P404M | 0.184
52 | I359F | 0.0413
53 | G155E | -0.691
54 | Q323S | -0.0829
55 | A220T | -0.62
56 | L257T | -0.763
57 | F200K | -0.874
58 | E303C | -0.0302
59 | R491N | -0.0106
60 | L361Y | -0.508
61 | S136I | -0.0848
62 | C278N | -1.1
63 | A212Q | -0.0874
64 | F418G | -0.636
65 | A147V | -0.14
66 | S231N | 0.155
67 | P377N | -0.977
68 | L349E | -0.993
69 | R266P | -0.449
70 | T112E | -0.925
71 | K80D | -1.37
72 | L184H | -1.05

Row | Variant | 8OG:A repair function score
73 | A137S | -0.0075
74 | W103Y | -0.166
75 | P299Y | -0.00692
76 | V261A | -0.399
77 | T346H | -0.35
78 | G236F | 0.0301
79 | W321P | -0.252
80 | C314V | -0.631
81 | W124M | -1.62
82 | L448T | -0.164
83 | L396Q | -0.673
84 | P84D | -0.332
85 | A162K | -1.03
86 | Y120D | -0.428
87 | L158I | -0.11
88 | P377T | -0.573
89 | P338T | -0.0578
90 | V348R | -1.43
91 | G205M | -0.711
92 | E395F | -0.476
93 | S294G | -0.00188
94 | M255E | -0.876
95 | R88M | -0.0202
96 | V102L | -0.259

Row | Variant | 8OG:A repair function score
97 | G429V | -0.00866
98 | K463N | -0.338
99 | C216Q | -0.579
100 | S367N | 0.179
101 | A238F | -0.858
102 | Q132W | -0.228
103 | S52P | -0.0118
104 | D208L | -1.03
105 | E350W | 0.0193
106 | T122A | -0.000881
107 | V327C | -0.201
108 | R219C | -0.563
109 | E319G | -0.0752
110 | Q472I | 0.0116
111 | H407A | 0.245
112 | F200E | -0.847
113 | P488D | -0.00371
114 | C311E | -0.757
115 | A137L | -1.02
116 | G188T | -1.03
117 | Q252E | -0.386
118 | V142T | -0.532
119 | G372H | -0.297
120 | P273E | -0.952

Row | Variant | 8OG:A repair function score
121 | R283L | -0.0781
122 | P185D | -0.333
123 | T263E | -0.267
124 | T122M | -0.388
125 | K80G | -0.194
126 | E178N | 0.0803
127 | T460K | -0.0077
128 | R60T | 0.00688
129 | A41P | 0.00904
130 | A405Q | -0.0438
131 | A405M | -0.161
132 | L423M | 0.142
133 | S296G | -0.0331
134 | F418C | -0.171
135 | A67Y | 0.00691
136 | V441F | -0.0997
137 | F466A | -0.4
138 | A445S | -0.0458
139 | L387R | -0.0979
140 | Q43I | 0.0991
141 | A192V | -0.943
142 | F330Q | -0.638
143 | P273N | -0.903
144 | S52C | -0.0302

Row | Variant | 8OG:A repair function score
145 | W128D | -1.27
146 | S197G | -0.747
147 | P84F | -0.723
148 | T417G | -0.208
149 | R389D | -0.426
150 | G434C | 0.163
151 | S419I | -0.542
152 | L423Q | 0.416
153 | L183R | -0.105
154 | A6P | -0.0227
155 | V53M | -0.112
156 | V230Y | -0.311
157 | F330E | -0.809
158 | L131E | -0.608
159 | A357Q | 0.125
160 | R281C | -0.173
161 | H514W | -0.03
162 | T460M | -0.152
163 | A212Y | -0.62
164 | Q271F | -0.0282
165 | L131R | -0.798
166 | F504H | 0.0204
167 | D300H | -0.0192

Reference: the supplement of paper PMC11908140
